Experimental data as given in IntAct's records for PubMed 25543256.

B1: Diphthamide biosynthesis protein 3 (Saccharomyces cerevisiae), Q3E840 (parent)
chain: MSTYDEIEIEDMTFEPENQMFTYPCPCGDRFQIYLDDMFEGEKVAVCPSCSLMIDVVFDKEDLAEYYEEAGIHPPEPIAAAA
partner: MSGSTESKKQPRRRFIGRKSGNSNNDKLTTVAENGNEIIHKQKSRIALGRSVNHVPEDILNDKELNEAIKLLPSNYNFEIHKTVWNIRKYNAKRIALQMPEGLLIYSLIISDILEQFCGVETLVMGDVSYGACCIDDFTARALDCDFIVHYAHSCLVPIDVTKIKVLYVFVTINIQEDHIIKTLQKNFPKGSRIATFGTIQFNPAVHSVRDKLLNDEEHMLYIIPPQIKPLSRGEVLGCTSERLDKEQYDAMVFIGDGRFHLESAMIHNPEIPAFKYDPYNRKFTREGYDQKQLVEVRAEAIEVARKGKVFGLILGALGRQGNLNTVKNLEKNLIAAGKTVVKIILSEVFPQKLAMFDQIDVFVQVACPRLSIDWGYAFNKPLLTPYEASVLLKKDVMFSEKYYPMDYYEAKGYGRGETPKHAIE
B2: Protein KTI13 (Saccharomyces cerevisiae), P31386 (parent)
chain: MSCVYAFGSNGQRQLGLGHDEDMDTPQRSVPGDDGAIVRKIACGGNHSVMLTNDGNLVGCGDNRRGELDSAQALRQVHDWRPVEVPAPVVDVACGWDTTVIVDADGRVWQRGGGCYEFTQQHVPLNSNDERIAVYGCFQNFVVVQGTRVYGWGSNTKCQLQEPKSRSLKEPVLVYDTGSVAVDYVAMGKDFMVIVDEGGRIVHASGRLPTGFELKQQQKRHNLVVLCMWTSIHLWNARLNTVESFGRGTHSQLFPQERLDFPIVGVATGSEHGILTTANQEGKSHCYNVYCWGWGEHGNCGPQKGSQPGLQLVGQYSGKPRVFGGCATTWIVL
partner: B1 chain
B3: Diphthamide biosynthesis protein 3 (Saccharomyces cerevisiae), Q3E840 (parent)
chain: B1 chain
partner: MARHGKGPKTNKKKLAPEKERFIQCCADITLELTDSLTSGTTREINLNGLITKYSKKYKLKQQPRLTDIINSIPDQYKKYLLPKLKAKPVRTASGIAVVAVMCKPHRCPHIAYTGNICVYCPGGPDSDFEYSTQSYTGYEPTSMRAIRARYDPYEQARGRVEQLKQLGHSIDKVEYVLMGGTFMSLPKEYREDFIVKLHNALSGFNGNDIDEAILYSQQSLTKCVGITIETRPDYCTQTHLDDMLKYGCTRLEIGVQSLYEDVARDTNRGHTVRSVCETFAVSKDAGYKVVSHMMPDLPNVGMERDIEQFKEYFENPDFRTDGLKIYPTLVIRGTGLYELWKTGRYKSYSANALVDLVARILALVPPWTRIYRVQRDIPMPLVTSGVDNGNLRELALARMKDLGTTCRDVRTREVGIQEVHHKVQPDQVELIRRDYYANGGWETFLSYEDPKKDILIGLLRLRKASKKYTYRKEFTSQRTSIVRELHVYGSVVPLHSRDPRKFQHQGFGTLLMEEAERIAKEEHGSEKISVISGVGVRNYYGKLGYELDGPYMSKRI
B4: Diphthamide biosynthesis protein 3 (Saccharomyces cerevisiae), Q3E840 (parent)
chain: B1 chain
partner: B2 chain

Variants of: B1
Details: with dph1_yeast DPH1, P40487

Variant	effect of a mutation on the interaction
MSTYDEIEIEDMTFEPENQMFTYPSPCGDRFQIYLDDMFEGEKVAVCPSCSLMIDVVFDKEDLAEYYEEAGIHPPEPIAAAA	disrupting interaction strength
MSTYDEIEIEDMTFEPENQMFTYPCPSGDRFQIYLDDMFEGEKVAVCPSCSLMIDVVFDKEDLAEYYEEAGIHPPEPIAAAA	disrupting interaction strength
MSTYDEIEIEDMTFEPENQMFTYPCPCGDRFQIYLDDMFEGEKVAVSPSCSLMIDVVFDKEDLAEYYEEAGIHPPEPIAAAA	disrupting interaction strength
MSTYDEIEIEDMTFEPENQMFTYPCPCGDRFQIYLDDMFEGEKVAVCPSSSLMIDVVFDKEDLAEYYEEAGIHPPEPIAAAA	disrupting interaction strength

Variants of: B2
Details: with dph3_yeast KTI11, Q3E840

Variant	effect of a mutation on the interaction
MSCVYAFGSNGQRQLGLGHDEDMDTPQRSVPGDDGAIVRKIACGGNHSVMLTNDGNLVGCGDNRRGELDSAQALRQVHDWRPVEVPAPVVDVACGWDTTVIVDADGRVWQRGGGCYEFTQQHVPLNSNDERIAVYGCFQNFVVVQGTRVYGWGSNTKCQLQEPKSRSLKEPVLVYDTGSVAVDYVAMGKDFMVIVDEGGRIVHASGRLPTGFELKQQQKRHNLVVLCMWTSIHLWNARLNTVESFGRGTHSQLFPQERLDFPIVGVATGSEHGILTTANQEGKSHCYNVYCWGAGEHGNCGPQKGSQPGLQLVGQYSGKPRVFGGCATTWIVL [W294A]	decreasing interaction strength
MSCVYAFGSNGQRQLGLGHDEDMDTPQRSVPGDDGAIVRKIACGGNHSVMLTNDGNLVGCGDNRRGELDSAQALRQVHDWRPVEVPAPVVDVACGWDTTVIVDADGRVWQRGGGCYEFTQQHVPLNSNDERIAVYGCFQNFVVVQGTRVYGWGSNTKCQLQEPKSRSLKEPVLVYDTGSVAVDYVAMGKDFMVIVDEGGRIVHASGRLPTGFELKQQQKRHNLVVLCMATSIHLWNARLNTVESFGRGTHSQLFPQERLDFPIVGVATGSEHGILTTANQEGKSHCYNVYCWGWGEHGNCGPQKGSQPGLQLVGQYSGKPRVFGGCATTWIVL [W229A]	disrupting interaction strength
MSCVYAFGSNGQRQLGLGHDEDMDTPQRSVPGDDGAIVRKIACGGNHSVMLTNDGNLVGCGDNRRGELDSAQALRQVHDWRPVEVPAPVVDVACGWDTTVIVDADGRVWQRGGGCYEFTQQHVPLNSNDERIAVYGCFQNFVVVQGTRVYGWGSNTKCQLQEPKSRSLKEPVLVYDTGSVAVDYVAMGKDFMVIVDEGGRIVHASGRLPTGFELKQQQKRHNLVVLCMCTSIHLWNARLNTVESFGRGTHSQLFPQERLDFPIVGVATGSEHGILTTANQEGKSHCYNVYCWGWGEHGNCGPQKGSQPGLQLVGQYSGKPRVFGGCATTWIVL [W229C]	disrupting interaction strength

Variants of: B2
Details: with dph3_yeast KTI11, Q3E840
Remark: another data set of the same source

Variant	effect of a mutation on the interaction
MSCVYAFGSNGQRQLGLGHDEDMDTPQRSVPGDDGAIVRKIACGGNHSVMLTNDGNLVGCGDNRRGELDSAQALRQVHDWRPVEVPAPVVDVACGWDTTVIVDADGRVWQRGGGCYEFTQQHVPLNSNDERIAVYGCFQNFVVVQGTRVYGWGSNTKCQLQEPKSRSLKEPVLVYDTGSVAVDYVAMGKDFMVIVDEGGRIVHASGRLPTGFELKQQQKRHNLVVLCMATSIHLWNARLNTVESFGRGTHSQLFPQERLDFPIVGVATGSEHGILTTANQEGKSHCYNVYCWGWGEHGNCGPQKGSQPGLQLVGQYSGKPRVFGGCATTWIVL [W229A]	decreasing interaction strength
MSCVYAFGSNGQRQLGLGHDEDMDTPQRSVPGDDGAIVRKIACGGNHSVMLTNDGNLVGCGDNRRGELDSAQALRQVHDWRPVEVPAPVVDVACGWDTTVIVDADGRVWQRGGGCYEFTQQHVPLNSNDERIAVYGCFQNFVVVQGTRVYGWGSNTKCQLQEPKSRSLKEPVLVYDTGSVAVDYVAMGKDFMVIVDEGGRIVHASGRLPTGFELKQQQKRHNLVVLCMWTSIHLWNARLNTVESFGRGTHSQLFPQERLDFPIVGVATGSEHGILTTANQEGKSHCYNVYCWGWGEAGNCGPQKGSQPGLQLVGQYSGKPRVFGGCATTWIVL [H297A]	increasing interaction strength
MSCVYAFGSNGQRQLGLGHDEDMDTPQRSVPGDDGAIVRKIACGGNHSVMLTNDGNLVGCGDNRRGELDSAQALRQVHDWRPVEVPAPVVDVACGWDTTVIVDADGRVWQRGGGCYEFTQQHVPLNSNDERIAVYGCFQNFVVVQGTRVYGWGSNTKCQLQEPKSRSLKEPVLVYDTGSVAVDYVAMGKDFMVIVDEGGRIVHASGRLPTGFELKQQQKRHNLVVLCMWTSIHLWNARLNTVESFGRGTHSQLFPQERLDFPIVGVATGSEHGILTTANQEGKSHCYNVYCWGWGAHGNCGPQKGSQPGLQLVGQYSGKPRVFGGCATTWIVL [E296A]	increasing interaction strength

Variants of: B2
Details: with dph3_yeast KTI11, Q3E840
Remark: another data set of the same source

Variant	effect of a mutation on the interaction
MSCVYAFGSNGQRQLGLGHDEDMDTPQRSVPGDDGAIVRKIACGGNHSVMLTNDGNLVGCGDNRRGELDSAQALRQVHDWRPVEVPAPVVDVACGWDTTVIVDADGRVWQRGGGCYEFTQQHVPLNSNDERIAVYGCFQNFVVVQGTRVYGWGSNTKCQLQEPKSRSLKEPVLVYDTGSVAVDYVAMGKDFMVIVDEGGRIVHASGRLPTGFELKQQQKRHNLVVLCMCTSIHLWNARLNTVESFGRGTHSQLFPQERLDFPIVGVATGSEHGILTTANQEGKSHCYNVYCWGWGEHGNCGPQKGSQPGLQLVGQYSGKPRVFGGCATTWIVL [W229C]	decreasing interaction strength

Variants of: B3
Details: with elp3_yeast ELP3, Q02908

Variant	effect of a mutation on the interaction
MSTYDEIEIEDMTFEPENQMFTYPCPCGDRFQIYLDDMFEGEKVAVCPSSSLMIDVVFDKEDLAEYYEEAGIHPPEPIAAAA	disrupting interaction strength

Variants of: B4
Details: with ats1_yeast ATS1, P31386

Variant	effect of a mutation on the interaction
MSTYDEIAIEDMTFEPENQMFTYPCPCGDRFQIYLDDMFEGEKVAVCPSCSLMIDVVFDKEDLAEYYEEAGIHPPEPIAAAA	decreasing interaction strength
MSTADEIEIEDMTFEPENQMFTYPCPCGDRFQIYLDDMFEGEKVAVCPSCSLMIDVVFDKEDLAEYYEEAGIHPPEPIAAAA	disrupting interaction strength
MSTYAEIEIEDMTFEPENQMFTYPCPCGDRFQIYLDDMFEGEKVAVCPSCSLMIDVVFDKEDLAEYYEEAGIHPPEPIAAAA	disrupting interaction strength

Variants of: B4
Details: with ats1_yeast ATS1, P31386
Remark: another data set of the same source

Variant	effect of a mutation on the interaction
MSTADEIEIEDMTFEPENQMFTYPCPCGDRFQIYLDDMFEGEKVAVCPSCSLMIDVVFDKEDLAEYYEEAGIHPPEPIAAAA	decreasing interaction strength
MSTYDEAEAEDMTFEPENQMFTYPCPCGDRFQIYLDDMFEGEKVAVCPSCSLMIDVVFDKEDLAEYYEEAGIHPPEPIAAAA	decreasing interaction strength
MSTAAEIEIEDMTFEPENQMFTYPCPCGDRFQIYLDDMFEGEKVAVCPSCSLMIDVVFDKEDLAEYYEEAGIHPPEPIAAAA	decreasing interaction strength

Variants of: B4
Details: with ats1_yeast ATS1, P31386
Remark: another data set of the same source

Variant	effect of a mutation on the interaction
MSTYAEIEIEDMTFEPENQMFTYPCPCGDRFQIYLDDMFEGEKVAVCPSCSLMIDVVFDKEDLAEYYEEAGIHPPEPIAAAA	decreasing interaction strength
MSTYDAIAIEDMTFEPENQMFTYPCPCGDRFQIYLDDMFEGEKVAVCPSCSLMIDVVFDKEDLAEYYEEAGIHPPEPIAAAA	decreasing interaction strength
